Results from article PMC11389407.

Columns and labels:
[1] = target: F_((ecto))-K394R (F_((ecto))-WT with substitution of Lys394 with Arg394) fused with the T4 fibritin trimerization domain (respiratory syncytial virus (strain of the construct not stated) | T4) (UniProt P03420); experiment: MST; RED-NHS-labelled F_((ecto)) protein at 50 nM pretreated with DMSO, IGF1R titrated from 30.6 pM to 2 µM, PBS, Monolith NT.115
[2] = target: F_((ecto))-WT (1–513 aa) fused with the T4 fibritin trimerization domain (respiratory syncytial virus (strain of the construct not stated) | T4) (UniProt P03420); experiment: as above

extracellular domain of the human IGF1R protein (Met 1−Asn 932) (from UniProt P08069 31-932) (domain or fragment)
Kd [1]: 12 nM | Kd [2]: 11 nM
